Measured values as given in patent publication US20140199318A1.

Target: patient IgG preparation from the immunoadsorption column regenerate of an α1-AR agAAB positive patient with mild vascular dementia
Experiment: competition ELISA: free loop1 peptide (0.3 nM to 5 µM) preincubated with patient IgG, binding to immobilised loop1 peptide read

## LGYWAFGRVFCN [free (soluble) synthetic peptide corresponding to extracellular loop1 of the human α1-AR]
  EC50: 30 nM
